# Assay results: patent US20220313738A1
# Target: Jurkat-M663, Jurkat-M665 and Jurkat-M666 (ISD-modified BCMA CARs M663, M665, M666)
# Test: cell-based or functional assay
row,Binder,"relative ISD-modified CAR positive rate (FACS), days 6, 7 and 8 [%]"
1,"wildtype SIV Nef, Q02840 1-223 (protein) MGSSNSKRQQQGLLKLWRGLRGKPGADWVLLSDPLIGQSSTVQEECGKALKKSWGKGKMTPDGRRLQEGDTFDEWDDDEEEVGFPVQPRVPLRQMTYKLAVDFSHFLKSKGGLDGIYYSERREKILNLYALNEWGIIDDWQAYSPGPGIRYPRVFGFCFKLVPVDLHEEARNCERHCLMHPAQMGEDPDGIDHGEVLVWKFDPKLAVEYRPDMFKDMHEHAKR",41.2 to 69.8
2,"SIV Nef M116, Q02840 1-223 (protein) MGSSNSKRQQQGLLKLWRGLRGKPGADWVLLSDPLIGQSSTVQEECGKALKKSWGKGKMTPDGRRLQEGDTFDEWDDDEEEVGFPVQPRVPLRQMTYKLAVDFSHFLKSKGGLDGIYYSERREKILNLYALNEWGIIDDWQAYSPGPGIRYPRVFGFCFKLVPVDLHEEARNCERHCAAHPAQMGEDPDGIDHGEVLVWKFDPKLAVEYRPDMFKDMHEHAKR",44.6 to 64.9
